The target of one data set is T1, PduP (Salmonella enterica, UniProt Q9XDN1).
T1 construct: native PduP within anaerobically purified Pdu microcompartments (wild-type and pduQ deletion strain BE903)
In words: thioester formation at […] nm in purified Pdu MCPs. In kind it is biochemical. The following applies: 10 mM propionaldehyde, 200 mM 1,2-propanediol, 40 µM NAD+, 100 µM HS-CoA, 100 mM sodium phosphate pH 7.0.

Substrate in data set [1]: CCC=O
Description: purified protein. It counts as biochemical, Salmonella enterica. As to conditions: 0.4 mM NADH, 100 mM sodium phosphate pH 7.0, anaerobic; pH 7.0.

Substrate in data set [2]: CCCO
Description: purified protein. In kind it is biochemical, Salmonella enterica. As to conditions: 2 mM NAD+, 100 mM Tris-HCl pH 9.0, anaerobic; pH 9.0.

Substrate in data set [3]: NC(=O)c1ccc[n+]([C@@H]2O[C@H](COP(=O)(O)OP(=O)(O)OC[C@H]3O[C@@H](n4cnc5c(N)ncnc54)[C@H](O)[C@@H]3O)[C@@H](O)[C@H]2O)c1
In words: purified protein. The following applies: 800 mM 1-propanol, 100 mM Tris-HCl pH 9.0, anaerobic; pH 9.0. It counts as biochemical, Salmonella enterica.

Substrate in data set [4]: NC(=O)C1=CN([C@@H]2O[C@H](COP(=O)(O)OP(=O)(O)OC[C@H]3O[C@@H](n4cnc5c(N)ncnc54)[C@H](O)[C@@H]3O)[C@@H](O)[C@H]2O)C=CC1
In words: purified protein. In kind it is biochemical, Salmonella enterica. The following applies: 150 mM propionaldehyde, 100 mM sodium phosphate pH 7.0, anaerobic; pH 7.0.

By Km is commonly meant the concentration of substrate that gives half-maximal velocity. In general, Vmax refers to the rate approached at saturating substrate. One may read the kcat as the number of substrate molecules converted per active site and unit of time at saturation. One may read the kcat/Km as the turnover number divided by the Michaelis constant.

T1 sequence (Q9XDN1 whole entry): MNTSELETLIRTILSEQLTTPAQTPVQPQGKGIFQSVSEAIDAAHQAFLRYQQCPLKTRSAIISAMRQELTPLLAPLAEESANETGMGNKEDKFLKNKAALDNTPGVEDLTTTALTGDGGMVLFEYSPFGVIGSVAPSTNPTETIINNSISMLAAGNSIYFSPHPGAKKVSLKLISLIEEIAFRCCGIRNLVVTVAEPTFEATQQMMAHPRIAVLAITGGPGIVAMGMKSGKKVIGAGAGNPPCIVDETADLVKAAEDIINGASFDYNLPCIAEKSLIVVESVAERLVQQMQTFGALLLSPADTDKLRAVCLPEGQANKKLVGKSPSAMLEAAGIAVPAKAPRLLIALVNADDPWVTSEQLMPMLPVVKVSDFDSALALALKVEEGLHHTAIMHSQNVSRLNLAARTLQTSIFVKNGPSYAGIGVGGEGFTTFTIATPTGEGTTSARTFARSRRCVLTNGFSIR

Consider `CCC=O` [propionaldehyde], for which the “thioester formation at 232 nm in purified Pdu MCPs” value on PduP is given as “no measureable PduP activity without added HS-CoA, NAD^+ or propionaldehyde”.
Consider `NC(=O)c1ccc[n+]([C@@H]2O[C@H](COP(=O)(O)OP(=O)(O)OC[C@H]3O[C@@H](n4cnc5c(N)ncnc54)[C@H](O)[C@@H]3O)[C@@H](O)[C@H]2O)c1` [NAD^+], for which the “thioester formation at 232 nm in purified Pdu MCPs” value at PduP is “no measureable PduP activity without added HS-CoA, NAD^+ or propionaldehyde”.

B1: PduQ-His6 (Salmonella enterica subsp. enterica serovar Typhimurium str. LT2) (protein)
chain: MNTFSLQTRLYSGQGSLAVLKRFTNKHIWIICDGFLAHSPLLDTLRNALPADNRISVFSEITPDPTIHTVVQGIAQMQALQPQVVIGFGGGSAMDAAKAIVWFSQQSGINIETCVAIPTTSGTGSEVTSACVISDPDKGIKYPLFNNALYPDMAILDPELVVSVPPQITANTGMDVLTHALEAWVSPRASDFTDALAEKAAKLVFQYLPTAVEKGDCVATRGKMHNASTLAGMAFSQAGLGLNHAIAHQLGGQFHLPHGLANALLLTTVIRFNAGVPRAAKRYARLAKACGFCPAEANDIAAINALIQQIELLKQRCVLPSLAVALKEGRSDFSARIPAMVQAALADVTLRTNPRPANAEAIRELLEELL
notes: full length, C-terminal His6 kept, pET-41a in E. coli BL21(DE3) RIL, anaerobic Ni-NTA
On to B1, for which the Km entry in the data set “purified protein [1]” was “(16.0±2.0)×10^3 µM”; in “purified protein [2]”, “(95.8±9.2)×10^3 µM”; in the data set “purified protein [3]”, 267.5 ± 22.3 µM; in “purified protein [4]”, 45.3 ± 5.3 µM. For the same molecule, the Vmax was determined as 81.3 µmol/min/mg in “purified protein [1]”, 8.4 µmol/min/mg in “purified protein [2]”, 9.2 µmol/min/mg in the data set “purified protein [3]” and 77.7 µmol/min/mg in “purified protein [4]”. Moreover, the kcat in “purified protein [1]” stood at 54.6 s⁻¹; in “purified protein [2]”, 5.64 s⁻¹; in “purified protein [3]”, 6.18 s⁻¹; in “purified protein [4]” it was 52.2 s⁻¹. The kcat/Km was found to be 3410 M⁻¹ s⁻¹ in “purified protein [1]”, 58.9 M⁻¹ s⁻¹ in the data set “purified protein [2]”, 23100 M⁻¹ s⁻¹ in “purified protein [3]” and 1.15e+06 M⁻¹ s⁻¹ in the data set “purified protein [4]”.

The values are drawn from PMC3471927, “The PduQ Enzyme Is an Alcohol Dehydrogenase Used to Recycle NAD^+ Internally within the Pdu Microcompartment of Salmonella enterica” (PLoS ONE, 2012).
